Assay results reported in publication PMC7508256.

What was measured:
Experiment in all cases: MST
[1] = target: T1, DF3 (YTHDF3) (UniProt Q7Z739 1-585)
T1 sequence: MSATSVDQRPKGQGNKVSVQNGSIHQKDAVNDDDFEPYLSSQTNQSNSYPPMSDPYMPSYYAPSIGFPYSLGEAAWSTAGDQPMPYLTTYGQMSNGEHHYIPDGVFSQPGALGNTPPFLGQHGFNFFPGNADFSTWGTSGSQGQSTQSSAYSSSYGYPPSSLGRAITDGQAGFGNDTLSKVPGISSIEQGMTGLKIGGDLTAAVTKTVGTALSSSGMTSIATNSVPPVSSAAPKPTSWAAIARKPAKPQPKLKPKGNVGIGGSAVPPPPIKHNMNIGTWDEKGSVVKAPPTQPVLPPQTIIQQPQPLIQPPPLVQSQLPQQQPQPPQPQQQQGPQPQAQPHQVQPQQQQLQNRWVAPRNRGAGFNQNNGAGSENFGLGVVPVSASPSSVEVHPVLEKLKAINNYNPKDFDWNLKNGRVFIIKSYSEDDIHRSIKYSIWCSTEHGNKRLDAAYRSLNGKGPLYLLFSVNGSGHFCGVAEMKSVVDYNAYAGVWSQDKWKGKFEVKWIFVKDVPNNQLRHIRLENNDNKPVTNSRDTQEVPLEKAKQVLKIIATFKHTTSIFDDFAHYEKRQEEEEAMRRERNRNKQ

[2] = target: T2, DF1 (YTHDF1) (UniProt Q9BYJ9 1-559)
T2 sequence: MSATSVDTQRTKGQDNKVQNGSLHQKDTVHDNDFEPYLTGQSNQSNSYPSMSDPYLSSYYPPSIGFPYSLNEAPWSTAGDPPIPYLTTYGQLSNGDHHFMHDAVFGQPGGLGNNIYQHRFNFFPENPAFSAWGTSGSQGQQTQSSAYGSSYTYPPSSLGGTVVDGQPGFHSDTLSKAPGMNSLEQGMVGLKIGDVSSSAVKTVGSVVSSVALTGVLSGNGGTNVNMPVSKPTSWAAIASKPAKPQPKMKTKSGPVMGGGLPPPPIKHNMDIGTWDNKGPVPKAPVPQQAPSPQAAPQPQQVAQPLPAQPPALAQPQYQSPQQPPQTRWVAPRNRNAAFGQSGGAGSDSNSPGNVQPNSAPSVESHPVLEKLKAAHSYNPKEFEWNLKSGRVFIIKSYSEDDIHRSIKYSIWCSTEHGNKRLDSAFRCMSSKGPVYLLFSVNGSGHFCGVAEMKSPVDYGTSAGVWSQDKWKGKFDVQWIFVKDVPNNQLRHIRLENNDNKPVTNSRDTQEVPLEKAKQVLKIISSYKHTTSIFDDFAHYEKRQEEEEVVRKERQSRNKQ

[3] = target: T3, DF2 (YTHDF2) (UniProt Q9Y5A9 1-579)
T3 sequence: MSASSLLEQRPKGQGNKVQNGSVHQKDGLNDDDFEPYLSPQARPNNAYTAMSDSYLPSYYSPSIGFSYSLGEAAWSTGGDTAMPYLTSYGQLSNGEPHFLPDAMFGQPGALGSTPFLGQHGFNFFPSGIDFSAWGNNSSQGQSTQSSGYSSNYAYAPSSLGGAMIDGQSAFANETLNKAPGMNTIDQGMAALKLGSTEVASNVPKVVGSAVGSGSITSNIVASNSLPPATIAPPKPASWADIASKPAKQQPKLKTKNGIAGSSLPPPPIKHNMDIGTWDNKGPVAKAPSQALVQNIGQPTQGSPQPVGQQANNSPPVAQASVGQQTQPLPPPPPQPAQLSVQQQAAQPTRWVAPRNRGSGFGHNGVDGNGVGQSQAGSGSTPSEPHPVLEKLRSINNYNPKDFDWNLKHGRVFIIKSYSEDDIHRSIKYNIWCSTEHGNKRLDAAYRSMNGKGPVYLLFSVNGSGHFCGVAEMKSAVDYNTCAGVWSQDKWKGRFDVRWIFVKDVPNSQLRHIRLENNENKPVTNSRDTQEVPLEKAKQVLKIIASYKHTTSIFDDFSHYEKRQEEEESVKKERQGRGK

Measured: binding result

UCCGGACUGU (ssRNA, N6-methyladenosine at position 6) [m6A-modified RNA]
binds: all assays above
